One experiment has as its target gp120JR-FL (HIV-1 JR-FL) (UniProt P20871). In words: cell-based or functional assay.
In experiment [1] the target is gp120DH123/CD4-IgG2 complex (HIV-1 DH123). In words: SPR, complex 50 nM over immobilised sulfopeptide 2-18 with MAb (150 mM [sic]). On the technique in general: Surface plasmon resonance follows binding to a sensor surface in real time, without labels.
In experiment [2] the target is gp120JR-FL/CD4-IgG2 complex (HIV-1 JR-FL).
The target of experiment [3] is biotinylated CCR5 Nt sulfopeptide 2-18. In words: direct ELISA, biotinylated peptide on streptavidin plate, complex titrated (CD4-IgG2 concentration), anti-human IgG-HRP. In general terms: An ELISA detects its analyte on a solid surface through an enzyme-linked reagent.
For experiment [4] the target is unchanged. In words: peptide ELISA, gp120/CD4-IgG2 complexes.
Experiment [5] shares this target.
In experiment [6] the target is CCR5 on L1.2-CCR5+ cells (Homo sapiens (Human)) (UniProt P51681).
Experiment [7] has as its target biotinylated CCR5 Nt sulfopeptide 8-15. In words: ELISA, biotinylated peptide on streptavidin plate, anti-human IgG-HRP.
Experiment [8] concerns the target biotinylated CCR5 Nt sulfopeptide 10-18. Described as above.
For experiment [9], the target named is biotinylated CCR5 Nt sulfopeptide 10-15. The experiment is described as above.
The target in experiment [10] is biotinylated CCR5 Nt sulfopeptide 6-16. Described as above.
Experiment [11] deals with CCR5 on L1.2-CCR5+ cells (Homo sapiens (Human)) (UniProt P51681). This is another data set of the same source.

Several values for one entry are separate records, joined by “and”; a condition that tells them apart may be missing. Identical values can stand only once.

For the substance CCR5 Nt peptide S-3/10/14, in the experiment with gp120JR-FL (HIV-1 JR-FL), the inhibition of entry of Nlluc+env- particles pseudotyped with HIV-1JR-FL envelope (luciferase; HeLa-CD4+CCR5+ and U87MG-CD4+CCR5+ cells; peptide 100 µM) worked out at 50%.

On to CCR5 Nt peptide S-10/14, for which, in the experiment with gp120JR-FL (HIV-1 JR-FL), the inhibition of entry of Nlluc+env- particles pseudotyped with HIV-1JR-FL envelope (luciferase; HeLa-CD4+CCR5+ and U87MG-CD4+CCR5+ cells; peptide 100 µM) turned out to be 50%.

anti-V3 loop MAb 19b (antibody): the % inhibition of complex binding to sulfopeptide 2-18 in experiment [1] is 80%; in experiment [2], greater than 90%.

For anti-gp120 MAb 17b (antibody), the % inhibition of complex binding to sulfopeptide 2-18 in experiment [1] and in experiment [2] was greater than 90% each time.

Regarding anti-gp120 MAb 48d (antibody), the % inhibition of complex binding to sulfopeptide 2-18 in experiment [1] and in experiment [2] was greater than 90% each time.

In turn, gp120DH123/CD4-IgG2 complex gave an IC50 in experiment [3] of 5 nM. The fold less binding than gp120JR-FL in [4] is 5 fold.

In [5], gp120JR-FL D324A/CD4-IgG2 complex yielded a fold decrease in binding vs wild-type gp120JR-FL greater than 10 fold.

Turning to gp120JR-FL F315A/CD4-IgG2 complex, the fold decrease in binding vs wild-type gp120JR-FL in [6] was 5 fold and 10 fold.

Regarding gp120JR-FL G310A/CD4-IgG2 complex, the fold decrease in binding vs wild-type gp120JR-FL in experiment [6] was 10 fold and 5 fold.

For gp120JR-FL I322A/CD4-IgG2 complex, the fold decrease in binding vs wild-type gp120JR-FL in [5] is greater than 10 fold.

gp120JR-FL I325A/CD4-IgG2 complex: the fold decrease in binding vs wild-type gp120JR-FL in experiment [5] was greater than 10 fold.

As to gp120JR-FL I420A/CD4-IgG2 complex, the fold decrease in binding vs wild-type gp120JR-FL in [5] is 5 fold and 10 fold.

Turning to gp120JR-FL K421A/CD4-IgG2 complex, the fold decrease in binding vs wild-type gp120JR-FL in experiment [5] is 5 fold and 10 fold.

gp120JR-FL N301A/CD4-IgG2 complex: in experiment [5], the fold decrease in binding vs wild-type gp120JR-FL was greater than 10 fold.

Regarding gp120JR-FL P311A/CD4-IgG2 complex, the fold decrease in binding vs wild-type gp120JR-FL in [6] is 5 fold and 10 fold.

In the case of gp120JR-FL Q422A/CD4-IgG2 complex, the fold decrease in binding vs wild-type gp120JR-FL in experiment [5] was 5 fold and 10 fold.

With gp120JR-FL R298A/CD4-IgG2 complex, the fold decrease in binding vs wild-type gp120JR-FL in experiment [5] is greater than 10 fold.

Take gp120JR-FL R313A/CD4-IgG2 complex: the fold decrease in binding vs wild-type gp120JR-FL in [6] was 5 fold and 10 fold.

Consider gp120JR-FL R326A/CD4-IgG2 complex, for which the fold decrease in binding vs wild-type gp120JR-FL in [5] is greater than 10 fold.

As to gp120JR-FL R419A/CD4-IgG2 complex, the fold decrease in binding vs wild-type gp120JR-FL in experiment [5] was 5 fold and 10 fold.

As for “gp120JR-FL R440A (from UniProt P20871 32-503)”, the fold lower avidity than wild type with CD4-IgG2 is 5 fold and 10 fold.

Regarding gp120JR-FL R444A/CD4-IgG2 complex, in experiment [5], the fold decrease in binding vs wild-type gp120JR-FL is 5 fold and 10 fold.

For “gp120JR-FL R469A (from UniProt P20871 32-503)”, the fold lower avidity than wild type in the experiment with CD4-IgG2 is 5 fold and 10 fold.

Consider gp120JR-FL S306A/CD4-IgG2 complex, for which the fold decrease in binding vs wild-type gp120JR-FL in experiment [6] was 5 fold and 10 fold.

Take gp120JR-FL T303A/CD4-IgG2 complex: in experiment [5], the fold decrease in binding vs wild-type gp120JR-FL was greater than 10 fold.

As for “gp120JR-FL W427A (from UniProt P20871 32-503)”, in the experiment with CD4-IgG2, the fold lower avidity than wild type is 5 fold and 10 fold.

For gp120JR-FL Y316A/CD4-IgG2 complex, in experiment [6], the fold decrease in binding vs wild-type gp120JR-FL was 5 fold and 10 fold.

In experiment [3], gp120JR-FL/CD4-IgG2 complex registered an IC50 of 1 nM. Further, the fold less avid than for sulfopeptide 2-18 in experiment [7], in experiment [9] and in experiment [10] was greater than 10 fold throughout. The substance also showed a fold lower avidity than for sulfopeptide 2-18 in experiment [8] of 3 fold. In experiment [11], this substance displayed a m.f.i. of 40 m.f.i.

Broadly, the IC50 is the concentration needed to halve the response being measured. Read a high IC50 as weaker potency in that assay.

These data come from patent US20030139571A1.
